Measurements as given in PMC9584609, “Determination of oligomeric states of proteins via dual-color colocalization with single molecule localization microscopy” (eLife, 2022).

Target: the molecule itself
Experiment: dual-color colocalization single molecule localization microscopy (DCC-SMLM); HEK293T cells transiently transfected, fixed with cold methanol; each subunit C-terminally tagged with mVenus and PAmCherry; colocalization ratio compared with the calibrated DCC model (coefficient of mismatch M^2) and with reference proteins (two-sample K.-S. test)

Protein | stoichiometry N
prestin (Slc26a5) tagged with mVenus and PAmCherry (natural protein, rat, UniProt Q9EPH0 1-744, looked up, prestin (Slc26a5), rat motor protein of cochlear outer hair cells; The same construct was used for DCC-SMLM and hrCNE; also called SLC26A5/prestin; source: HEK293T, transfected; on fixed cells (DCC-SMLM) and in lysate (digitonin or DDM, hrCNE); not shown: mVenus, C-terminal, kept; PAmCherry, C-terminal, kept) MDHAEENEIPAETQKYLVERPIFSHPVLQERLHVKDKVTDSIGDKLKQAFTCTPKKVRNIIYMFLPITKWLPAYKFKEYVLGDLVSGISTGVLQLPQGLAFAMLAAVPPVFGLYSSFYPVIMYCFFGTSRHISIGPFAVISLMIGGVAVRLVPDDIVIPGGVNATNGTEARDALRVKVAMSVTLLSGIIQFCLGVCRFGFVAIYLTEPLVRGFTTAAAVHVFTSMLKYLFGVKTKRYSGIFSVVYSTVAVLQNVKNLNVCSLGVGLMVFGLLLGGKEFNERFKEKLPAPIPLEFFAVVMGTGISAGFNLHESYSVDVVGTLPLGLLPPANPDTSLFHLVYVDAIAIAIVGFSVTISMAKTLANKHGYQVDGNQELIALGICNSIGSLFQTFSISCSLSRSLVQEGTGGKTQLAGCLASLMILLVILATGFLFESLPQAVLSAIVIVNLKGMFMQFSDLPFFWRTSKIELTIWLTTFVSSLFLGLDYGLITAVIIALLTVIYRTQSPSYTVLGQLPDTDVYIDIDAYEEVKEIPGIKIFQINAPIYYANSDLYSSALKRKTGVNPAIIMGARRKAMRKYAKEVGNANIANATVVKVDAEVDGENATKPEEEDDEVKFPPIVIKTTFPEELQRFLPQGENIHTVILDFTQVNFMDSVGVKTLAGIVKEYGDVGIYVYLAGCSAQVVNDLTSNRFFENPALKELLFHSIHDAVLGSQVREAMAEQETTVLPPQEDMEPNATPTTPEA | 2
SLC26A3 tagged with mVenus and PAmCherry (natural protein, human, UniProt P40879 1-764, looked up, SLC26A3, human epithelial chloride-bicarbonate exchanger; The same construct was used for DCC-SMLM and hrCNE; also called epithelial chloride-bicarbonate exchanger SLC26A3; source: HEK293T, transfected; on fixed cells (DCC-SMLM) and in lysate (digitonin or DDM, hrCNE); not shown: mVenus, C-terminal, kept; PAmCherry, C-terminal, kept) MIEPFGNQYIVARPVYSTNAFEENHKKTGRHHKTFLDHLKVCCSCSPQKAKRIVLSLFPIASWLPAYRLKEWLLSDIVSGISTGIVAVLQGLAFALLVDIPPVYGLYASFFPAIIYLFFGTSRHISVGPFPILSMMVGLAVSGAVSKAVPDRNATTLGLPNNSNNSSLLDDERVRVAAAASVTVLSGIIQLAFGILRIGFVVIYLSESLISGFTTAAAVHVLVSQLKFIFQLTVPSHTDPVSIFKVLYSVFSQIEKTNIADLVTALIVLLVVSIVKEINQRFKDKLPVPIPIEFIMTVIAAGVSYGCDFKNRFKVAVVGDMNPGFQPPITPDVETFQNTVGDCFGIAMVAFAVAFSVASVYSLKYDYPLDGNQELIALGLGNIVCGVFRGFAGSTALSRSAVQESTGGKTQIAGLIGAIIVLIVVLAIGFLLAPLQKSVLAALALGNLKGMLMQFAEIGRLWRKDKYDCLIWIMTFIFTIVLGLGLGLAASVAFQLLTIVFRTQFPKCSTLANIGRTNIYKNKKDYYDMYEPEGVKIFRCPSPIYFANIGFFRRKLIDAVGFSPLRILRKRNKALRKIRKLQKQGLLQVTPKGFICTVDTIKDSDEELDNNQIEVLDQPINTTDLPFHIDWNDDLPLNIEVPKISLHSLILDFSAVSFLDVSSVRGLKSILQEFIRIKVDVYIVGTDDDFIEKLNRYEFFDGEVKSSIFFLTIHDAVLHILMKKDYSTSKFNPSQEKDGKIDFTINTNGGLRNRVYEVPVETKF | 2
